Measured values: paper PMC4803751, “Identification and Partial Characterization of a Novel UDP-N-Acetylenolpyruvoylglucosamine Reductase/UDP-N-Acetylmuramate:L-Alanine Ligase Fusion Enzyme from Verrucomicrobium spinosum DSM 4136^T” (Frontiers in Microbiology, 2016)

How the values were obtained:
Test in all cases: radiometric HPLC assay of UDP-MurNAc-L-Ala formation
Type in all cases: biochemical, Verrucomicrobium spinosum
[1] = substrate: CC(=O)N[C@H]1[C@@H](OP(=O)(O)OP(=O)(O)OC[C@H]2O[C@@H](n3ccc(=O)[nH]c3=O)[C@H](O)[C@@H]2O)O[C@H](CO)[C@@H](O)[C@@H]1O[C@H](C)C(=O)O; conditions: 5 mM ATP, 0.2 mM L-Ala, 10 mM MgCl2, 100 mM Tris-HCl pH 9.0, 10 mM ammonium sulfate, 0.5 mg/mL BSA, 37°C, UDP-MurNAc 25-500 μM, labelled compound, MurC activity
From the text: (§1) radiometric HPLC assay of UDP-MurNAc-L-Ala formation on MurB/CVs (MurCVs activity)

[2] = substrate: C[C@H](N)C(=O)O; conditions: 5 mM ATP, 1 mM UDP-MurNAc, 10 mM MgCl2, 100 mM Tris-HCl pH 9.0, 10 mM ammonium sulfate, 0.5 mg/mL BSA, 37°C, L-Ala 10-400 μM, labelled compound, MurC activity
From the text: as §1

[3] = substrate: Nc1ncnc2c1ncn2[C@@H]1O[C@H](COP(=O)(O)OP(=O)(O)OP(=O)(O)O)[C@@H](O)[C@H]1O; conditions: 1 mM UDP-MurNAc, 0.2 mM L-Ala, 10 mM MgCl2, 100 mM Tris-HCl pH 9.0, 10 mM ammonium sulfate, 0.5 mg/mL BSA, 37°C, ATP 0.2-5 mM, MurC activity
From the text: as §1

B1: MurB/CVs (MurCVs activity) (Verrucomicrobium spinosum) (protein)
chain: MNHAVVSLLKEGRHKMHVHLIGVAGSGMSGLALLLMELGHKVSGSDKVTTLETERMEKKGLIFHCPQSEREVEGADMVIYSSAVKPGNPAYEAAYRHGIPLVRRAEALAAIMARKHGVVVAGTHGKTTTSSMAAHVLRVGGAKPSHYVGAEIPILGSNAHWDDAGELFVAEGDESDGTLVKFEPRHAIILNIEAEHLDYYEDLNEIKLVFRQLLEKTSGYSVYCAEDPVATELCEGRKNGISYGWSRDHNFSANILELRPAQTRYEVFQKGELLGEVLLGIPGRHNVLNSLAAISLAVSVGVPFSSIKQALESFRGARRRFEVKYSGSQYQIIDDYGHHPTEIKATLATAKALNPKRIVCLFQPHRYSRTQLLKQEFGGAFNDVDVLCVTDVYAASEKPLPGVSGETILEEVKLQAPGVECHSTPKLLNARDLIGSKLRPGDLLITLGAGNVHEVGSALARDLKVAEQLTTVLNREGGGTVKLYEPMANHTTIRLGGPAQYWIEPMTIQGFAEVVKALRAALIPIRVIGRGSNLLVRDGGIKGAVLHPSKGEFDEVRVDGNFIFAATGVRLKKIASAARAAGLGGFEWMEGIPGNLGGALRMNAGAMGLQTFDQVVSVRFLDGNGELREKMKHEIDHQYRSVPELDRHFAVSAVLQGRPAEAAEIDEKLAASHQKRRGSQPIGASAGCIFKNPGPVPAGKLVDELGLKGRSFGKAIVSDVHGNFILNSGGGTARDVQDLISDIKQVALQERGIMLETEVQIIGEEEPLPL
Km [1]: 90 ± 25 µM
Km [2]: 25 ± 10 µM
kcat [2]: 8 s⁻¹
Km [3]: 470 ± 160 µM
